Reference: the DeepSol protein solubility set

Assay: soluble on expression in E. coli; label from the status in PepcDB or PDB records

Soluble on expression in E. coli, not soluble:
MGSDKIHHHHHHMPSLKLSLTGLQIIKQARSEKGWTIDNPCWLEQASQVLEPGRNWENAEVFAAGVSLATWKRFLKGDAIDASVFKAFCQVLGLNWQDLVERPPNSFIIGTTQIPNIPLFFGRRYELTTLSQAIEQGTRLIAITGIGGMGKTALATKLVESRSSHFSQTLWFSFHHNPPAKDKIPTLVPQTLMVFDGWDGILGGNRGGQYRPEYEPYADFLRTVVQTTHTSCVIITSREQPEGLNILGAGGAVIFPLGGLMEGAIELLQHHQLTFNAQQWITLVNQYGGNPLFLNMAANFIHELFAGDVGEFLASGTLVAGEFAPLVTQWLKQISTLEQILIKSLATKVQGFTRQEILLHLASRAANGDILAALLSLKRRGLIETMKDGELERFYLQPVILKCVQRLF
MGSDKIHHHHHHMPSTNPFLTLPYEPAFASLGSEFSDPVEAATFPAHQLRFRNDRLLPILGLDPATVTDEHFIEAFGRFQGRSPLLAMRYHGYQFGIYNPDLGDGRGFLYGQVRGRNGWLYDFGTKGSGRTPYSRGGDGKLTLKGGVREVLASEFLQRLGVRTGRCLSLIETGEELWRGDEPSPTRSSVMVRFNRTHIRFGTFERLHYFKRADLVRQLLDHVIATYYSHLLGDPEADAKFYAELTERTADLAAQWMAAGFCHAVLNTDNLSIVGESFDYGPWAFLDRFDPKFTAAYFDHSGRYRYENQPGICQLNLELLQVPLGMVMSAADLEAGIAGFGDRYQATYSRLMLRRLGFEADQLHSAIADDLIITTLQLLLRAPIGYNEFFARLRAQFQPSWRSDLSAILPDWITTDLEALPEAQWQGWRDRYHQLLTHLPESQLPLIQQQLAQANPEIAPIRPVVESVWDPIAIDDNWEPLEALLNRWRHDGDGAADGVVVPNAN
MGSDKIHHHHHHMPTLPMPSFLSSYWESSFNLKQHIQEFLQLDAEILETKLEFGQQQMAELGHKDFDWEQATAFYRDKVGEVYLFELGAWHLASHDYIGDTLRLIADHAHGCVLDFGGGIGTHAIGAALCPHVEQVVYCDINPINFDFVKYRAEKLGLSEKIIFCVEIPPQKTFDTIMSFDVLEHLPDPSQQLLEFHQILADEGKMILNWHFFKGFNQEHPFHLDDPQAIDTFFKTIQSNCLEVFHPYHITARCYRKWN
MGSDKIHHHHHHMPTPTRWQEKLPEAATTYLEGRRLDEVECVISDLPGIARGKAVPASKFAKQDYFYLPDSIFYQTITGDWAEAADEDGWIEKDMLLRPDMSTATAAPWTGDWTLQVIHDAYDRDGNPIPFSPRNVLKHVVSLYEAQGWKPVVAPEMEFYLVARNVDPARDIQPMMGRSGRPAAARQAYSMTAVDEFGPVIDDIYDFAEAQGFEIDGITQEGGAGQLEINLRHGSPVKLADEVFYFKRLIREAALRHDCFATFMAKPIADEPGSAMHIHHSVIDIESGENIFSGPQGGETDAFYHFIGGLQNHLPAGLAVMAPYVNSYRRYVKNHAAPINLEWARDNRTTGIRVPLSSSASRRVENRIAGMDCNPYLGIAVSLACGYLGLMEERRPTRQFKGDAYEGEGDFPQVMGQALDLFDESKALHEVLGPEFARVYSTVKRAEYEEFLQVISPWEREHLLLNV
MGSDKIHHHHHHMPVMFQQMQYFIAIVNNHSFTQAAVDCHISQSAISQQMKELESQLGVKLLNRKGRSFEVTEAGQYFYIHSQDILADVDQLIKKTIKIEKNDEVELRVGYLRSFGTAEFLQTVSKFTQEFPKVKIKISSGTHEELYELLQTGKIDLNFSDQRRALSNEYQNEFLTASEFMVAVNNSLPVETQKIDVADLVDIPCILIIDGHQQVSEEEYYRNVLGVKSEFVIAKSYDEAQMLIASNQGYLIINQRMRTQLDKDIVKMISLVKGDRKLIQNYYAYWQANNSGYYIETFAELLKQTFA
MGSDKIHHHHHHMQALRKCYGIVGADDIVSEMKTWQVTSNDPHEGLTKWADGLDEAFVQLEPVATTGDGFYGHIQQTSTAELDVSVVTSTGHEIRRLDRHIRHRSADLLYVNILGRGRSEVSQRDTVVAAPMDVSIVDPRAPYSIRQEAPFQLVSIAVPPDWVEREARHCHFLSRTAAGRELSSVVWGLAKMLLAIKPDQDGLATSLAQQIHHSLALLPEMAGSDATPRVSVAMLQSYVQRHFSQPDLRAEHLARQFGISVRRVHQLFEPTGHTVSEFINDLRLARAADCLGDAALARRTISEIAWQVGYSDPSYFTRRFKRRYGCSPRAYRAAHHPAPIARLS
MGSDKIHHHHHHMQDDRLFPYGHARGAGWREALSSALEMAGPRVRGGTLGFLYVTDSFESDLPDILSAVREQTGVPHWTGCVGAGICATAQEYLDEPALAFMVTDFPETEFRLFAGMGPYRTGKSWPTGPGRPPYFAIVHGDSQTPDLPDLVRDFAGQMGSGFITGGICSSRTDGAQLVDEVVHGGLSGVTFSENIAVATRLTQGCSPIGPIHHINEAHNNVISRLDDRPALDVFNDETCDILSRDLQRAAGFIFVAMPVKNDDRGDYMVRTLVGIDIERKLLAIGEYAEAGQSLMFCKRDSGTAGEDLERMLSDISRLADGRKIRGGLYFTCVWRGQNLFGPDSAELRMIRDGLGDFPLVGFFANAEISHDKIYGYTGVLTLFLDAPTS
MGSDKIHHHHHHMQGVPEHFTDERDYAQFRHLPTLPGIELYHAHICRYAFEPHTHEAFGIGTIDDGAEQFRYRGAKHIAPVDSLVLMNPDELHTGESATEDGWRYRMIYIPPDVLESVSGEKGWWFTDVVRHDPATARQLAMTLAALWQTTDPLASESLLLSLIALFRPHAHIAQRQVVEPFHRFDVVKAYLRENFAHTITLKELAALVSLSPYHFLRQFKTQFHVTPHQMLMAIRLYEAKQMLTRGMAAAHVALAVGLTDQAHLTRTFAQRYGVTPIRYQKQVYPTLR
MGSDKIHHHHHHMQIESFKSLLPKYKCIFFDAFGVLKTYNGLLPGIENTFDYLKAQGQDYYIVTNDASRSPEQLADSYHKLGLFSITADKIISSGMITKEYIDLKVDGGIVAYLGTANSANYLVSDGIKMLPVSAIDDSNIGEVNALVLLDDEGFNWFHDLNKTVNLLRKRTIPAIVANTDNTYPLTKTDVAIAIGGVATMIESILGRRFIRFGKPDSQMFMFAYDMLRQKMEISKREILMVGDTLHTDILGGNKFGLDTALVLTGNTRIDDAETKIKSTGIVPTHICESAVIEL
MGSDKIHHHHHHMQKLGIFIYSLGSGGAERVVATLLPILSLKFEVHLILMNDKISYEIPECQIHFLECSKPSENPILKFLKLPFLALKYKKLCRNLGIDTEFVFLNRPNYIALMARMFGNKTRLVINECTTPSVMYMKNNFNSLVNKFLISLLYPKADLILPNSKGNLEDLVQNFSISPKKCEILYNAIDLENIGQKALEDIALKDKFILSVGRLDKGKNHALLIRAYARLKTDLKLVILGEGVLKDELLALIKELNLEEKVLLLGFDNNPYKYMAKCEFFAFASVFEGFSNVLIESLACSCAVVCTDHKSGARELFGDDEFGLLVEVDNENSMFQGLKTMLEDDKLRKAYKNKAKTRAKAFDKVKIARDALKYLLG
MGSDKIHHHHHHMQKTPALLSDIGNNEDASVYQISPDLALVQTLDFITPIVDSAYHFGAIAAANALSDVFAMGAEVINALNIVGFDTCNHDLNILKELLEGANDKVKECNALVVGGHTIESTELFFGLSVTGKVHPSKFIANNTSKIGDCIILTKPLGTGILSTALKAQMLNQKHLDIMLKNMIELNYKASQIALKFHPSAMSDVTGFGLLGHLKEMLNKNISFEIFESELPFLDGVKEYFNMGLIPAGAYKNLEFIKELTPDLNEEKLLLCDPQTSGGLLISISEKDSLECLKKLEDENIQAKIIAKVVNKQENDIIIS
MGSDKIHHHHHHMQLIFFRGMKELLSTMDLDTDANTIPELKERAHMLCARFLGGAWKTVPLEHLRISRIKGGMSNMLFLCRLSEVYPPIRNEPNKVLLRVYFNPETESHLVAESVIFTLLSERHLGPKLYGIFSGGRLEEYIPSRPLSCHEISLAHMSTKIAKRVAKVHQLEVPIWKEPDYLCEALQRWLKQLTGTVDAEHRFDLPEECGVSSVNCLDLARELEFLRAHISLSKSPVTFCHNDLQEGNILLPKASSGNIRMPSLSDETQALGNSLSAFNPADPRLVLIDFEYASYNYRAFDFANHFIEWTIDYDIDEAPFYKIQTENFPENDQMLEFFLNYLREQGNTRENELYKKSEDLVQETLPFVPVSHFFWGLRERSSVAVLQT
MGSDKIHHHHHHMQLLGPTSNTFISQRLRLHYVDWGNADKPPLLLVHGGRDHCRSWDWTAEALREDWHIIALDHRGHGDSQWTQDGNYRTMDLVYDVAQLIHQLDLAPVTIVSHSWGANTSLRYAGLFPENVRKIVAIEGLFPTPEREALMKDVPFARRVREFIVEKRKAAGRLPRRYATLEDAYARMKGENPYLTDAQARHLTLHGINRNEDGTFSWKFDPHLNVDGAPYDISTDQRNELWGAITCPTLLLNGADSWAGNPDRNGMAQHFRNAQVVEFENAGHWLHHDQFDRFIATLRDFL
MGSDKIHHHHHHMQMFCYQCSQTANGTGCTEYGVCGKSPTVARLQDNLVFAIKGISAYYYHARELGYDDPEIAGFLDEALYSTLTNVNFDAQSFVEYALEAGRMNLKAMQLLKKAHIETYGEPTPVEVETGTKKGKGIIVTGHNLKALEELLKQVEGTNVYVYTHSEMLPAHGYPGLRKYKNLIGNLGKAWYDQRKLFAEYPVAILGTSNCVLIPSESYRDRMFTTSIARLPGVKHIDGYDYTEVIEKAKSLPDLEEKPGSYKLRTGFSTSVVVSLADKIKELVEAGKIKHFLVVGGCDVPFKRNEYYREFVQKLPKETVVITLACGKFRINDLDLGDIDGIPRLIDVGQCNDTIVAIEIAQALAKVFGVEVTELPLTLVLTWMEQKAVAILWTLLALGLKNIYVGPVLPAWVNEDILKVLTAEFGLKTISEP
MGSDKIHHHHHHMQNLPIYLYPNTLDVILDSGATTKGVNRVMYQHELKIQKGIKNKVRIQFKNSDQKRIVTSGTYVFSMYDAINQRLLLEKPLDILDDGTTFALRGLAELTLTENDTMDLDVSKYQFSVKYLDEDGTYLPTYSNTYYGVTGTLNLLQDVYPVLQPSQEITSFDRTYDDSIQLYQWRSGNIYATPEFNGNSALHTIAMYMTGFKGKVLVQGTLYNTPSSFNRYVTLGRKRV
MGSDKIHHHHHHMQNPAIGNVADTTASDFAELPATASHGPLRIEYRWVNAAAGNAPIAVFLHEGLGSVTMWRDWPQALCERLGMRGLVYSRPGYGLSTPRPHDVKWPADFMTAQARDILPALLDALCIDMRERRRMWVIGHSDGGSITLLYAALYPEELAGAVAIAPHVFVEDISVESIAQTRQLYETTDLRSKLGRYHADVDSAFYGWNDIWLNPAFRQWSIAGELTSIRKPLLAVQGHDDNYGTMAQIDTIAAHVPHAQLVKLDACGHSPHRDAPQPLNKAIAAFVLKDGVA
MGSDKIHHHHHHMQPETSAQYQHRFSQAIRGGEAADGLPQDRLNVYIRLIRNNIHSFIDRCYTETRQYFDSKEWSRLKEGFVRDARAQTPYFQEIPGEFLQYCQSLPLSDGILALMDFEYTQLLAEVAQIPDIPDIHYSNDSKYTPSPAAFIRQYRYDVTHDLQEAETALLIWRNAEDDVMYQTLDGFDMMLLEIMGSSALSFDTLAQTLVEFMPKADNWKNILLGKWSGWIEQRIIIPSLSAISENMEGNSPSQNHLSA
